{"source": "paper PMC4059961", "about": "“The transcriptional network of WRKY53 in cereals links oxidative responses to biotic and abiotic stress inputs”", "binders": {"B1": {"name": "POC1 promoter probe (dsDNA)", "DNA 1": "ACGTAAATTTTTTGAATAAGACAAATGGTCAAACATGTAAGAAAAGAAAGTCAACGGCGTCATCTATTTAAAAAACGGAT", "DNA 2": "ATCCGTTTTTTAAATAGATGACGCCGTTGACTTTCTTTTCTTACATGTTTGACCATTTGTCTTATTCAAAAAATTTACGT"}, "B2": {"name": "ORK10 promoter probe (dsDNA)", "DNA 1": "ATCTGGTCAACAATGTATTACACACTGCTTTGACTACTTCCCCCAAAAAAGTACACACTGCTTTGACTCAGGTCAAACTT", "DNA 2": "AAGTTTGACCTGAGTCAAAGCAGTGTGTACTTTTTTGGGGGAAGTAGTCAAAGCAGTGTGTAATACATTGTTGACCAGAT"}}, "target": "SUMO::TaWRKY53 (Triticum aestivum L. cv. Gamtoos-R)", "sequence (chain, as listed by the source)": "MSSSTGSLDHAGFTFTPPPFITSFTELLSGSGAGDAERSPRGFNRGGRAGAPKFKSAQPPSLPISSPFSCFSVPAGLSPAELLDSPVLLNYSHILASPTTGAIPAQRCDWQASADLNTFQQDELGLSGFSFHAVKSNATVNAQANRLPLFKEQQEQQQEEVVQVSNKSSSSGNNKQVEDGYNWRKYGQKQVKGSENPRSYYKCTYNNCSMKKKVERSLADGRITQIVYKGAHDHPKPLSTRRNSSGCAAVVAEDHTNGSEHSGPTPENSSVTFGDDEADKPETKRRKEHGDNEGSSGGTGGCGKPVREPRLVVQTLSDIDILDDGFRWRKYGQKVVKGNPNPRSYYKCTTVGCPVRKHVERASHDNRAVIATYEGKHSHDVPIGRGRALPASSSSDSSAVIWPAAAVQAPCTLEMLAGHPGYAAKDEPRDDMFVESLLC", "assay": "EMSA; Probe EMSA: 10 mM Tris, 50 mM KCl, 1 mM DTT, pH 7.5, 20 min, room temperature; 1-kb EMSA: 10 mM Tris, 100 mM KCl, 1 mM EDTA, 0.1 mM DTT, 5% glycerol, 0.01 mg/mL BSA, pH 7.5, room temperature", "details": "protein: recombinant; tags: N-terminal 6xHis-SUMO; label: biotin; blunt"}
{"binder": "B1", "values": [{"measurement": "binding result", "value": "binds"}]}
{"binder": "B2", "values": [{"measurement": "binding result", "value": "binds"}]}
